The record followed here is patent US20240018502A1.

B1: MTSP-1 protease domain Q38Y/I41A/D60bT/F60eG/Y60gW/D96V/F97N/T98G/F99L/C122S/G151H/Q175L/Q192D (enzyme)
chain: VVGGTDADEGEWPWQVSLHALGYGHACGASLISPNWLVSAAHCYIDTRGGRWSDPTQWTAFLGLHDQSQRSAPGVQERRLKRIISHPFFNVNGLDYDIALLELEKPAEYSSMVRPISLPDASHVFPAGKAIWVTGWGHTQYGGTHALILQKGEIRVINQTTCENLLPQLITPRMMCVGFLSGGVDSCDGDSGGPLSSVEADGRIFQAGVVSWGDGCAQRNKPGVYTRLPLFRDWIKENTGV
B2: MTSP-1 protease domain Q38H/I41S/D60bT/F60eK/Y60gF/D96M/F97N/T98G/F99L/C122S/G151N/Q175L/Q192D (enzyme)
chain: VVGGTDADEGEWPWQVSLHALGHGHSCGASLISPNWLVSAAHCYIDTRGKRFSDPTQWTAFLGLHDQSQRSAPGVQERRLKRIISHPFFNMNGLDYDIALLELEKPAEYSSMVRPISLPDASHVFPAGKAIWVTGWGHTQYGGTNALILQKGEIRVINQTTCENLLPQLITPRMMCVGFLSGGVDSCDGDSGGPLSSVEADGRIFQAGVVSWGDGCAQRNKPGVYTRLPLFRDWIKENTGV
B3: MTSP-1 protease domain Q38E/I41S/D60bW/F60eG/D96M/F97N/T98G/F99L/C122S/G151N/Q175L/Q192D (enzyme)
chain: VVGGTDADEGEWPWQVSLHALGEGHSCGASLISPNWLVSAAHCYIDWRGGRYSDPTQWTAFLGLHDQSQRSAPGVQERRLKRIISHPFFNMNGLDYDIALLELEKPAEYSSMVRPISLPDASHVFPAGKAIWVTGWGHTQYGGTNALILQKGEIRVINQTTCENLLPQLITPRMMCVGFLSGGVDSCDGDSGGPLSSVEADGRIFQAGVVSWGDGCAQRNKPGVYTRLPLFRDWIKENTGV
B4: MTSP-1 protease domain Q38M/I41S/F60eH/Y60gW/D96Y/F97N/T98G/F99L/C122S/G151N/Q175L/Q192D (enzyme)
chain: VVGGTDADEGEWPWQVSLHALGMGHSCGASLISPNWLVSAAHCYIDDRGHRWSDPTQWTAFLGLHDQSQRSAPGVQERRLKRIISHPFFNYNGLDYDIALLELEKPAEYSSMVRPISLPDASHVFPAGKAIWVTGWGHTQYGGTNALILQKGEIRVINQTTCENLLPQLITPRMMCVGFLSGGVDSCDGDSGGPLSSVEADGRIFQAGVVSWGDGCAQRNKPGVYTRLPLFRDWIKENTGV
B5: MTSP-1 protease domain Q38H/I41S/D60bT/F60eG/D96P/F97N/T98G/F99L/C122S/G151Q/Q175L/Q192D (enzyme)
chain: VVGGTDADEGEWPWQVSLHALGHGHSCGASLISPNWLVSAAHCYIDTRGGRYSDPTQWTAFLGLHDQSQRSAPGVQERRLKRIISHPFFNPNGLDYDIALLELEKPAEYSSMVRPISLPDASHVFPAGKAIWVTGWGHTQYGGTQALILQKGEIRVINQTTCENLLPQLITPRMMCVGFLSGGVDSCDGDSGGPLSSVEADGRIFQAGVVSWGDGCAQRNKPGVYTRLPLFRDWIKENTGV
B6: MTSP-1 protease domain Q38K/I41G/D60bT/F60eG/Y60gW/D96P/F97N/T98G/F99L/C122S/G151N/Q175L/Q192D (enzyme)
chain: VVGGTDADEGEWPWQVSLHALGKGHGCGASLISPNWLVSAAHCYIDTRGGRWSDPTQWTAFLGLHDQSQRSAPGVQERRLKRIISHPFFNPNGLDYDIALLELEKPAEYSSMVRPISLPDASHVFPAGKAIWVTGWGHTQYGGTNALILQKGEIRVINQTTCENLLPQLITPRMMCVGFLSGGVDSCDGDSGGPLSSVEADGRIFQAGVVSWGDGCAQRNKPGVYTRLPLFRDWIKENTGV
B7: MTSP-1 protease domain Q38K/I41G/D60bT/F60eG/Y60gW/D96L/F97N/T98G/F99L/C122S/G151N/Q175L/Q192D (enzyme)
chain: VVGGTDADEGEWPWQVSLHALGKGHGCGASLISPNWLVSAAHCYIDTRGGRWSDPTQWTAFLGLHDQSQRSAPGVQERRLKRIISHPFFNLNGLDYDIALLELEKPAEYSSMVRPISLPDASHVFPAGKAIWVTGWGHTQYGGTNALILQKGEIRVINQTTCENLLPQLITPRMMCVGFLSGGVDSCDGDSGGPLSSVEADGRIFQAGVVSWGDGCAQRNKPGVYTRLPLFRDWIKENTGV
B8: MTSP-1 protease domain Q38E/I41S/D60bV/F60eK/Y60gW/D96P/F97N/T98G/F99L/C122S/G151N/Q175L/Q192D (enzyme)
chain: VVGGTDADEGEWPWQVSLHALGEGHSCGASLISPNWLVSAAHCYIDVRGKRWSDPTQWTAFLGLHDQSQRSAPGVQERRLKRIISHPFFNPNGLDYDIALLELEKPAEYSSMVRPISLPDASHVFPAGKAIWVTGWGHTQYGGTNALILQKGEIRVINQTTCENLLPQLITPRMMCVGFLSGGVDSCDGDSGGPLSSVEADGRIFQAGVVSWGDGCAQRNKPGVYTRLPLFRDWIKENTGV
B9: MTSP-1 Q38H/I41A/D60bT/F60eK/Y60gW/F97T/ins97aE/T98G/F99L/C122S/G151N/Q175L/Q192D (enzyme)
chain: VVGGTDADEGEWPWQVSLHALGHGHACGASLISPNWLVSAAHCYIDTRGKRWSDPTQWTAFLGLHDQSQRSAPGVQERRLKRIISHPFFNDTEGLDYDIALLELEKPAEYSSMVRPISLPDASHVFPAGKAIWVTGWGHTQYGGTNALILQKGEIRVINQTTCENLLPQLITPRMMCVGFLSGGVDSCDGDSGGPLSSVEADGRIFQAGVVSWGDGCAQRNKPGVYTRLPLFRDWIKENTGV
B10: MTSP-1 protease domain Q38H/I41A/D60bV/F60eR/Y60gW/D96F/F97E/ins97aT/T98G/F99M/C122S/G151N/Q175L/Q192G (enzyme)
chain: VVGGTDADEGEWPWQVSLHALGHGHACGASLISPNWLVSAAHCYIDVRGRRWSDPTQWTAFLGLHDQSQRSAPGVQERRLKRIISHPFFNFETGMDYDIALLELEKPAEYSSMVRPISLPDASHVFPAGKAIWVTGWGHTQYGGTNALILQKGEIRVINQTTCENLLPQLITPRMMCVGFLSGGVDSCGGDSGGPLSSVEADGRIFQAGVVSWGDGCAQRNKPGVYTRLPLFRDWIKENTGV
B11: MTSP-1 protease domain Q38H/I41A/D60bV/F60eR/Y60gW/D96W/F97D/ins97aD/T98G/F99L/C122S/G151N/Q175L/Q192G (enzyme)
chain: VVGGTDADEGEWPWQVSLHALGHGHACGASLISPNWLVSAAHCYIDVRGRRWSDPTQWTAFLGLHDQSQRSAPGVQERRLKRIISHPFFNWDDGLDYDIALLELEKPAEYSSMVRPISLPDASHVFPAGKAIWVTGWGHTQYGGTNALILQKGEIRVINQTTCENLLPQLITPRMMCVGFLSGGVDSCGGDSGGPLSSVEADGRIFQAGVVSWGDGCAQRNKPGVYTRLPLFRDWIKENTGV
B12: MTSP-1 protease domain Q38H/I41A/D60bV/F60eR/Y60gW/D96F/F97S/ins97aH/T98G/F99L/C122S/G151N/Q175L/Q192G (enzyme)
chain: VVGGTDADEGEWPWQVSLHALGHGHACGASLISPNWLVSAAHCYIDVRGRRWSDPTQWTAFLGLHDQSQRSAPGVQERRLKRIISHPFFNFSHGLDYDIALLELEKPAEYSSMVRPISLPDASHVFPAGKAIWVTGWGHTQYGGTNALILQKGEIRVINQTTCENLLPQLITPRMMCVGFLSGGVDSCGGDSGGPLSSVEADGRIFQAGVVSWGDGCAQRNKPGVYTRLPLFRDWIKENTGV
B13: MTSP-1 protease domain Q38H/I41A/D60bV/F60eR/Y60gW/D96F/F97Y/ins97aE/T98G/F99M/C122S/G151N/Q175L/Q192R (enzyme)
chain: VVGGTDADEGEWPWQVSLHALGHGHACGASLISPNWLVSAAHCYIDVRGRRWSDPTQWTAFLGLHDQSQRSAPGVQERRLKRIISHPFFNFYEGMDYDIALLELEKPAEYSSMVRPISLPDASHVFPAGKAIWVTGWGHTQYGGTNALILQKGEIRVINQTTCENLLPQLITPRMMCVGFLSGGVDSCRGDSGGPLSSVEADGRIFQAGVVSWGDGCAQRNKPGVYTRLPLFRDWIKENTGV
B14: MTSP-1 protease domain Q38H/I41A/D60bV/F60eR/Y60gW/D96W/F97D/ins97aT/T98G/F99L/C122S/G151N/Q175L/Q192G (enzyme)
chain: VVGGTDADEGEWPWQVSLHALGHGHACGASLISPNWLVSAAHCYIDVRGRRWSDPTQWTAFLGLHDQSQRSAPGVQERRLKRIISHPFFNWDTGLDYDIALLELEKPAEYSSMVRPISLPDASHVFPAGKAIWVTGWGHTQYGGTNALILQKGEIRVINQTTCENLLPQLITPRMMCVGFLSGGVDSCGGDSGGPLSSVEADGRIFQAGVVSWGDGCAQRNKPGVYTRLPLFRDWIKENTGV
B15: MTSP-1 protease domain Q38H/I41A/D60bV/F60eR/Y60gW/D96F/F97D/ins97aE/T98G/F99M/C122S/G151N/Q175L/Q192R (enzyme)
chain: VVGGTDADEGEWPWQVSLHALGHGHACGASLISPNWLVSAAHCYIDVRGRRWSDPTQWTAFLGLHDQSQRSAPGVQERRLKRIISHPFFNFDEGMDYDIALLELEKPAEYSSMVRPISLPDASHVFPAGKAIWVTGWGHTQYGGTNALILQKGEIRVINQTTCENLLPQLITPRMMCVGFLSGGVDSCRGDSGGPLSSVEADGRIFQAGVVSWGDGCAQRNKPGVYTRLPLFRDWIKENTGV
B16: MTSP-1 protease domain Q38H/I41S/D60bT/F60eS/Y60gW/D96F/F97Y/ins97aD/T98G/F99L/C122S/G151H/Q175L/Q192D (enzyme)
chain: VVGGTDADEGEWPWQVSLHALGHGHSCGASLISPNWLVSAAHCYIDTRGSRWSDPTQWTAFLGLHDQSQRSAPGVQERRLKRIISHPFFNFYDGLDYDIALLELEKPAEYSSMVRPISLPDASHVFPAGKAIWVTGWGHTQYGGTHALILQKGEIRVINQTTCENLLPQLITPRMMCVGFLSGGVDSCDGDSGGPLSSVEADGRIFQAGVVSWGDGCAQRNKPGVYTRLPLFRDWIKENTGV
B17: MTSP-1 protease domain Q38H/I41S/D60bT/F60eS/Y60gW/D96F/F97S/ins97aD/T98G/F99L/C122S/G151H/Q175L/Q192D (enzyme)
chain: VVGGTDADEGEWPWQVSLHALGHGHSCGASLISPNWLVSAAHCYIDTRGSRWSDPTQWTAFLGLHDQSQRSAPGVQERRLKRIISHPFFNFSDGLDYDIALLELEKPAEYSSMVRPISLPDASHVFPAGKAIWVTGWGHTQYGGTHALILQKGEIRVINQTTCENLLPQLITPRMMCVGFLSGGVDSCDGDSGGPLSSVEADGRIFQAGVVSWGDGCAQRNKPGVYTRLPLFRDWIKENTGV
B18: MTSP-1 Q38H/I41S/D60bT/F60eS/Y60gW/F97D/ins97aV/T98P/F99L/C122S/G151H/Q175L/Q192E (enzyme)
chain: VVGGTDADEGEWPWQVSLHALGHGHSCGASLISPNWLVSAAHCYIDTRGSRWSDPTQWTAFLGLHDQSQRSAPGVQERRLKRIISHPFFNDDVPLDYDIALLELEKPAEYSSMVRPISLPDASHVFPAGKAIWVTGWGHTQYGGTHALILQKGEIRVINQTTCENLLPQLITPRMMCVGFLSGGVDSCEGDSGGPLSSVEADGRIFQAGVVSWGDGCAQRNKPGVYTRLPLFRDWIKENTGV
B19: MTSP-1 protease domain Q38H/I41A/D60bV/F60eR/Y60gW/D96F/F97E/ins97aS/T98G/F99M/C122S/G151N/Q175L/Q192G (enzyme)
chain: VVGGTDADEGEWPWQVSLHALGHGHACGASLISPNWLVSAAHCYIDVRGRRWSDPTQWTAFLGLHDQSQRSAPGVQERRLKRIISHPFFNFESGMDYDIALLELEKPAEYSSMVRPISLPDASHVFPAGKAIWVTGWGHTQYGGTNALILQKGEIRVINQTTCENLLPQLITPRMMCVGFLSGGVDSCGGDSGGPLSSVEADGRIFQAGVVSWGDGCAQRNKPGVYTRLPLFRDWIKENTGV
B20: MTSP-1 protease domain Q38H/I41A/D60bV/F60eR/Y60gW/D96F/F97Y/ins97aN/T98G/F99M/C122S/G151N/Q175L/Q192G (enzyme)
chain: VVGGTDADEGEWPWQVSLHALGHGHACGASLISPNWLVSAAHCYIDVRGRRWSDPTQWTAFLGLHDQSQRSAPGVQERRLKRIISHPFFNFYNGMDYDIALLELEKPAEYSSMVRPISLPDASHVFPAGKAIWVTGWGHTQYGGTNALILQKGEIRVINQTTCENLLPQLITPRMMCVGFLSGGVDSCGGDSGGPLSSVEADGRIFQAGVVSWGDGCAQRNKPGVYTRLPLFRDWIKENTGV

Chain of plasma purified human complement protein C3 (human) (P01024 23-667, chain 1 of 2): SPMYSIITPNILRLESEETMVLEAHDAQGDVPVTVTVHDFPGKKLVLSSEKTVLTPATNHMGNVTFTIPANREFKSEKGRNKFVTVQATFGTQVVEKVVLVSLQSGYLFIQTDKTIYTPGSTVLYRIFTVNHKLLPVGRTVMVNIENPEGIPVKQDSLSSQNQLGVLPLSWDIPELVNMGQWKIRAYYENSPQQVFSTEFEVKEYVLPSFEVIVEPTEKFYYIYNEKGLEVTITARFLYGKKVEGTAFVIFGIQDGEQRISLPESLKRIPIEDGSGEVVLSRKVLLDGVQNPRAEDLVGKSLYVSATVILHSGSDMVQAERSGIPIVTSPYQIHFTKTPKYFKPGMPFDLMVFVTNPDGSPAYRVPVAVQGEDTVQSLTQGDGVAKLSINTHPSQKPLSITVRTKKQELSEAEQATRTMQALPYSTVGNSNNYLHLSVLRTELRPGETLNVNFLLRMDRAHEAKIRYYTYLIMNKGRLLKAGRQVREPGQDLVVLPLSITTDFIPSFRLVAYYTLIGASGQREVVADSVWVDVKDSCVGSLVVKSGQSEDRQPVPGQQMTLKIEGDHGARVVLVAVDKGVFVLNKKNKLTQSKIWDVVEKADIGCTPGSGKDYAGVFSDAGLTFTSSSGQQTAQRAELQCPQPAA
Chain of plasma purified human complement protein C3 (human) (P01024 672-1663, chain 2 of 2): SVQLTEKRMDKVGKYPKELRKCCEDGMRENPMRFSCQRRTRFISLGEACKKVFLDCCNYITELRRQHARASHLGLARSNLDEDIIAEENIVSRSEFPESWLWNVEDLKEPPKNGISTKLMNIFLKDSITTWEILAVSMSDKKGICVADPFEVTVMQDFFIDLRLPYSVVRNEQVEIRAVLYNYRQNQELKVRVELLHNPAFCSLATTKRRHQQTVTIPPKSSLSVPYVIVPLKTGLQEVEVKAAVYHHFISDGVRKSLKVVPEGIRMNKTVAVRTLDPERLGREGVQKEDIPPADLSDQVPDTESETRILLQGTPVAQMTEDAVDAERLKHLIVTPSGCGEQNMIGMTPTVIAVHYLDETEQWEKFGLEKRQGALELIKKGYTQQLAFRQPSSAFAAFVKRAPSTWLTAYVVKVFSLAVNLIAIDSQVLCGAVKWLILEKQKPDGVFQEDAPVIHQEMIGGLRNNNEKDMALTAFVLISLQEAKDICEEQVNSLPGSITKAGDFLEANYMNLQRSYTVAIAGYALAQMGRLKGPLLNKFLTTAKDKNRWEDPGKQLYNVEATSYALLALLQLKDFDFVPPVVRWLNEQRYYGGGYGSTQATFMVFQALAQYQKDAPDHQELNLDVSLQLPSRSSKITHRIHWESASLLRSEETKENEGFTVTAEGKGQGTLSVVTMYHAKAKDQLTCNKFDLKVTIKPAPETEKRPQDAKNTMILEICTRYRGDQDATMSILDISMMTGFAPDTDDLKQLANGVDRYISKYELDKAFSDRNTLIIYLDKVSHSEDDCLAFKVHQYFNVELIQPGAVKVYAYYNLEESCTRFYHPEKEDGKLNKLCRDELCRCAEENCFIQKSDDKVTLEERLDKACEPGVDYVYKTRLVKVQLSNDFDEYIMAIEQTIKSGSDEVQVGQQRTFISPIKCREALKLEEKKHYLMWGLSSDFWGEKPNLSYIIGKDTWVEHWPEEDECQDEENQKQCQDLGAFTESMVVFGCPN

The test has as its target plasma purified human complement protein C3 (human) (UniProt P01024). Nature of the test: cell-based or functional assay.
B1 had an EC50 hC3 cleavage of 5.06 nM.
In turn, B2 registered an EC50 hC3 cleavage of 20.6 nM.
Still for that read-out and setting: the same measure for B3: 22.3 nM; for B4: 21.6 nM; for B5: 34.2 nM.
The molecule B6 had an EC50 hC3 cleavage of 27.4 nM.
B7: the EC50 hC3 cleavage was 12.5 nM.
B8 returned an EC50 hC3 cleavage of 45.9 nM.
Consider B9, for which the EC50 of hC3 cleavage came to 14.4 nM.
In the case of B10, the EC50 hC3 cleavage is 16.9 nM.
B11 yielded an EC50 hC3 cleavage of 5.28 nM.
Take B12: the EC50 hC3 cleavage was 3.14 nM.
In turn, B13 gave an EC50 hC3 cleavage of 7.16 nM.
B14 came in with an EC50 hC3 cleavage of 4.9 nM.
As for B15, the EC50 hC3 cleavage was 13.1 nM.
On the same count and under the same terms, next, B16: 3.13 nM; B17: 5.17 nM.
B18 showed an EC50 of hC3 cleavage of 6.68 nM.
In turn, B19 returned an EC50 hC3 cleavage of 21.3 nM.
The molecule B20 had an EC50 hC3 cleavage of 3.76 nM.
